Publication PMC8379990, “Structure of autoinhibited Akt1 reveals mechanism of PIP3-mediated activation” (Proceedings of the National Academy of Sciences of the …, 2021)

Molecular target: T1, C-terminal tail peptide (FITC-SMEAVDSERRPHFPQFSYSASGTA) (human, C460A (from the letters against P31749, from memory; not stated by the paper) …, FITC (fluorescein) on the N-terminus; unphosphorylated)
T1 construct: residues 457 to 480 of human Akt1 (the C-terminal tail residues missing in Akt1^ΔC); The methods call it 'the C-terminal 35 amino acids of Akt1', but the printed peptide has 24 residues; also called fluorescein-labeled peptide (unphosphorylated)
T1 peptide: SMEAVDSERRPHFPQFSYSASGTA
Test: fluorescence polarisation; fluorescence anisotropy; reverse titration of 200 to 250 µM Akt1^ΔC in buffer with 100 nM fluorescein-labeled peptide; 20 °C, 20 mM Tris pH 8.0, 100 mM NaCl, 1 mM TCEP; one-site binding model; three independent titrations; saturation not reached
Details: both partners purified

Kd: ~500 µM
B1: Akt1 1 to 456 (Akt1^ΔC) (domain or fragment)
chain: MNDVAIVKEGWLHKRGEYIKTWRPRYFLLKNDGTFIGYKERPQDVDQREAPLNNFSVAQCQLMKTERPRPNTFIIRCLQWTTVIERTFHVETPEEREEWTTAIQTVADGLKKQEEEEMDASAEHTDMEVSLAKPKHRVTMNEFEYLKLLGKGTFGKVILVKEKATGRYYAMKILKKEVIVAKDEVAHTLTENRVLQNSRHPFLTALKYSFQTHDRLCFVMEYANGGELFFHLSRERVFSEDRARFYGAEIVSALDYLHSEKNVVYRDLKLENLMLDKDGHIKITDFGLCKEGIKDGATMKTFCGTPEYLAPEVLEDNDYGRAVDWWGLGVVMYEMMCGRLPFYNQDHEKLFELILMEEIRFPRTLGPEAKSLLSGLLKKDPKQRLGGGSEDAKEIMQHRFFAGIVWQHVYEKKLSPPFKPQVTSETDTRYFDEEFTAQMITITPPDQDD
modifications: phosphothreonine at T450 (stoichiometrically monophosphorylated, turn motif)
